The values below come from paper PMC7599842, “PARP1 Deficiency Reduces Tumour Growth by Decreasing E2F1 Hyperactivation: A Novel Mechanism in the Treatment of Cancer” (Cancers, 2020).

The target in this test is T1, PARP1 (poly (ADP-ribose) polymerase-1) (UniProt P09874 1-1014).
T1 construct: PARP1, bought from Trevigen; Commercial protein; catalogue number not given; source: bought: Trevigen
Put plainly: BLI; GST-E2F1 immobilised on GST biosensors; serial dilutions of PARP1; FortéBio BLItz instrument, global fitting. Conditions: both partners purified.

T1 sequence (P09874 whole entry): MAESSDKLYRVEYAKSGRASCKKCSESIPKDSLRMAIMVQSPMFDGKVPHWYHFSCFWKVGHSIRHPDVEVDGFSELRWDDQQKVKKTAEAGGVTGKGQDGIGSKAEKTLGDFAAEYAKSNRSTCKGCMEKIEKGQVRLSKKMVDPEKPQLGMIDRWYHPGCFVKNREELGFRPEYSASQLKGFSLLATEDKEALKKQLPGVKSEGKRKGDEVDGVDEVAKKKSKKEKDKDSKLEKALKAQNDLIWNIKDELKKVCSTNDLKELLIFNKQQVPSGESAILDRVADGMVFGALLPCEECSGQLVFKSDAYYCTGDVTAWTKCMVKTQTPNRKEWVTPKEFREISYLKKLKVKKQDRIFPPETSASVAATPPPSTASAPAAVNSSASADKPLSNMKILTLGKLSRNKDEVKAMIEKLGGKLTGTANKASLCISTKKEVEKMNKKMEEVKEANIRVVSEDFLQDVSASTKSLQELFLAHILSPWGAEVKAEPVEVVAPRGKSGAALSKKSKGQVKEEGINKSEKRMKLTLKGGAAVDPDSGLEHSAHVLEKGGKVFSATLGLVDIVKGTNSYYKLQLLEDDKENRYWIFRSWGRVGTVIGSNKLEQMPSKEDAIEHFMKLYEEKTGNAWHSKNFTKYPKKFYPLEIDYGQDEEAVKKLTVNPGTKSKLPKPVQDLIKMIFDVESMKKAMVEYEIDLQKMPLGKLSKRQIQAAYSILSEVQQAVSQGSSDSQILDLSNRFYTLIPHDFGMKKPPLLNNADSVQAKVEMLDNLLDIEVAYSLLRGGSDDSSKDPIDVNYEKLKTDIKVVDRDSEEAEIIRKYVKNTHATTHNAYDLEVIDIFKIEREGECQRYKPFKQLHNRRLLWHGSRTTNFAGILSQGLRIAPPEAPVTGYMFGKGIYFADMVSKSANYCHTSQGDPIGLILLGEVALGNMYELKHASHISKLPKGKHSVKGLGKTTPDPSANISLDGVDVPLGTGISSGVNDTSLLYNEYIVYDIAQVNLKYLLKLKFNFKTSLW

B1: Recombinant GST-hE2F1 (natural protein)
chain: not shown
notes: E2F1 transcription factor, human (hE2F1); also called GST-E2F1; source: recombinant, purified as described elsewhere [27]
Molecule B1 showed a Kd of 22 µM.
